Experiments:
[1] = target: T1, Integrin beta-2/Integrin alpha-L recombinant protein complex (R and D 3868-AV) (UniProt P20701 26-1090); assay: BLI (Octet), antibody captured on AHQ biosensor, integrin complex in solution at 300/60/12 nM; the legend paragraph 15 names Itgal/Itgb2 as the antigen
T1 construct: Bought complex; also called Itgal/Itgβ2; ItgaL/Itgβ2
Method: (§1) To determine the binding kinetic parameters of the antibodies, BLI experiments were performed on an Octet HTX instrument (Sartorius) at 1000 rpm and 25° C. All proteins were diluted in an assay buffer (PBS, 1% BSA, 0.05% Tween 20). Test and control antibodies at a concentration of 2 μg/ml were first captured on AHQ biosensors to achieve the binding signals of 0.8-1.3 nm. Unoccupied Fc-binding sites on the antibody-coated sensors were subsequently quenched by 20 μg/mL of the Fc protein. After equilibration with the assay buffer, the biosensors were then dipped for 600 s into wells containing 5-fold serial dilution of Integrin-beta 2 complexes (association phase), followed by a transfer back into an assay buffer for additional 600 s (dissociation phase). Assay buffer alone served as a negative control. Binding response data were reference subtracted and were globally fitted with 1:1 binding model using ForteBio's Octet Systems software 9.0.

[2] = target: Integrin beta-2/Integrin alpha-M recombinant protein complex (R and D 4047-AM) (UniProt P11215 17-1105); assay: phage display selection on immobilised complex, clones evaluated by phage ELISA
Method: Briefly, Integrin-beta-2 recombinant protein complexes were immobilized on Maxisorp Immuno plates (ThermoFisher, #12-565-135) and used for positive binding selections with library phage pools that were first exposed to neutravidin coated wells to deplete nonspecific binders. After four rounds of binding selections, clonal phage was prepared and evaluated by phage ELISA and sequencing as described (PMID: 23219464).

[3] = target: T2, recombinant Itgβ2 (Integrin beta-2 complex, alpha chain not stated for this result); assay: BLI (Octet), antibody captured on AHQ biosensors, Integrin beta-2 complex in solution, 1:1 fit
T2 construct: Bought R&D Systems heterodimer; also called Integrin-beta 2 complexes
Method: as §1

binding result [1]: binds
binding result [2]: binds
Kd [3]: 1.56 nM
B1: Antibody D3-7065 (antibody, V domains shown)
VH: EVQLVESGGGLVQPGGSLRLSCAASGFTISYYYMHWVRQAPGKGLEWVASISSSSGYTYYADSVKGRFTISADTSKNTAYLQMNSLRAEDTAVYYCARGAMDYWGQGTLVTVSS
VL: DIQMTQSPSSLSASVGDRVTITCRASQSVSSAVAWYQQKPGKAPKLLIYSASSLYSGVPSRFSGSRSGTDFTLTISSLQPEDFATYYCQQFSSGSWAPITFGQGTKVEIK
notes: It was purified on protein A and captured on AHQ biosensors for BLI

From US20260137781A1 (University of California, published 2026)
